Patent US20210032299A1 (Eli Lilly, published 2021)
Starred links: 1 amine or outer side, 2 acyl side, 3 side chain; linkers in the order of their positions; H or OH if unused. Non-standard residues stand in square brackets, D forms with d. Groups on a side chain read outwards from the residue. No end group written: not given here. *: point of attachment. C20 diacid = O=C(O)CCCCCCCCCCCCCCCCCCC(=O)*; αMePhe(2-F) = C[C@](N)(Cc1ccccc1F)C(=O)O; γGlu = O=C(O)[C@H](CCC(=O)[*:2])N[*:1]; αMeF = C[C@](N)(Cc1ccccc1)C(=O)O; 4Pal = N[C@@H](Cc1ccncc1)C(=O)O; AEEA = NCCOCCOCC(=O)O; Aib = CC(C)(N)C(=O)O

T1: human glucose-dependent insulinotropic polypeptide (GIP) receptor (human, UniProt P48546 22-466)
T1 construct: whole, on cells; Assayed as crude membranes of stably transfected CHO cells; also called hGIPR; human GIP receptor
T1 sequence (looked up): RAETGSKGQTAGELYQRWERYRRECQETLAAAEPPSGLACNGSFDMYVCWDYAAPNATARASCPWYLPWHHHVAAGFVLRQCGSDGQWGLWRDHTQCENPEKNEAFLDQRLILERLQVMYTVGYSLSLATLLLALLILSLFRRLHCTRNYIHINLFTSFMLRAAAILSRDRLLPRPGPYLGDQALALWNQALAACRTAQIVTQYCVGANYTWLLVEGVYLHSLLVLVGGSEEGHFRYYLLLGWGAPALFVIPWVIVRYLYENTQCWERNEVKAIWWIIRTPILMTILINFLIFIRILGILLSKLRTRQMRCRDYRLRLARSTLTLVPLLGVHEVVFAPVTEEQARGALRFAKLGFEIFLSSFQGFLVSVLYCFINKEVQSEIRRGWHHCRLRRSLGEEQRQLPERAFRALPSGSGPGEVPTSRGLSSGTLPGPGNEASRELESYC


Tests used:
[1] = target: T1, human glucose-dependent insulinotropic …; experiment: SPA, displacement of [125I]-GIP from hGIPR membranes, 0.1% bacitracin
human glucagon receptor = target: T2, human glucagon receptor (human, UniProt P47871 26-477); experiment: SPA, displacement of [125I]-Gcg from hGcgR membranes, 0.1% bacitracin
T2 construct: whole, on cells; Assayed as crude membranes of stably transfected HEK293 cells; also called hGcgR; GcgR
In short: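 Binding buffer: 25 mM HEPES pH 7.4, 2.5 mM CaCl₂, 1 mM MgCl₂, 0.003% Tween-20, protease inhibitors without EDTA. Counted by scintillation after 12 h incubation/settling at room temperature. Four-parameter nonlinear fit; Kᵢ given as geometric mean ± SEM of independent replicates run on different days.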

human GLP-1 receptor = target: T3, human GLP-1 receptor (human, UniProt P43220 24-463); experiment: SPA, displacement of [125I]-GLP-1 from hGLP-1R membranes, 0.1% bacitracin
T3 construct: whole, on cells; Assayed as crude membranes of stably transfected HEK293 cells; also called hGLP1R; hGLP-1R
In short: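 Binding buffer: 25 mM HEPES pH 7.4, 2.5 mM CaCl₂, 1 mM MgCl₂, 0.1% bacitracin, 0.003% Tween-20, protease inhibitors without EDTA. Four-parameter nonlinear regression; Kᵢ given as geometric mean ± SEM, n = independent replicates run on different days.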

T2 sequence (P47871 26-477): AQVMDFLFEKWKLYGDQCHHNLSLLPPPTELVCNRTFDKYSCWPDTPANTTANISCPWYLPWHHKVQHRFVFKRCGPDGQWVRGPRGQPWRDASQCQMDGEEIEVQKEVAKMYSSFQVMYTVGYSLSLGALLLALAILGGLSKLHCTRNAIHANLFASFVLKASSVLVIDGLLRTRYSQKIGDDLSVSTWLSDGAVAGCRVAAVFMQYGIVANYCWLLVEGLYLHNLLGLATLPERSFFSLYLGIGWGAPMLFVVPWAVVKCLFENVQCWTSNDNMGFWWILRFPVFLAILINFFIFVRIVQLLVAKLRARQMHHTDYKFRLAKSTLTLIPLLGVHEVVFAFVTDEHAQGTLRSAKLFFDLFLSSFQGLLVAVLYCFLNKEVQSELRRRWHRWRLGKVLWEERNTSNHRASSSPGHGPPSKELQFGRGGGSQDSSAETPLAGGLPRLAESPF

Binder | Ki [1] [nM] | Ki (human glucagon receptor) [nM] | Ki (human GLP-1 receptor) [nM]
Y[Aib]EGT[αMeF]ISDYSIALDKK([AEEA-AEEA-γGlu-C20 diacid])HQ[Aib]DFVE[4Pal]LLEAGPSSGAPPPS-NH2 (N-terminus assumed; SMILES CC[C@H](C)[C@H](NC(=O)[C@H](CO)NC(=O)[C@H](Cc1ccc(O)cc1)NC(=O)[C@H](CC(=O)O)NC(=O)[C@H](CO)NC(=O)[C@@H](NC(=O)[C@](C)(Cc1ccccc1)NC(=O)[C@@H](NC(=O)CNC(=O)[C@H](CCC(=O)O)NC(=O)C(C)(C)NC(=O)[C@@H](N)Cc1ccc(O)cc1)[C@@H](C)O)[C@@H](C)CC)C(=O)N[C@@H](C)C(=O)N[C@@H](CC(C)C)C(=O)N[C@@H](CC(=O)O)C(=O)N[C@@H](CCCCN)C(=O)N[C@@H](CCCCNC(=O)COCCOCCNC(=O)COCCOCCNC(=O)CC[C@H](NC(=O)CCCCCCCCCCCCCCCCCCC(=O)O)C(=O)O)C(=O)N[C@@H](Cc1c[nH]cn1)C(=O)N[C@@H](CCC(N)=O)C(=O)NC(C)(C)C(=O)N[C@@H](CC(=O)O)C(=O)N[C@@H](Cc1ccccc1)C(=O)N[C@H](C(=O)N[C@@H](CCC(=O)O)C(=O)N[C@@H](Cc1ccncc1)C(=O)N[C@@H](CC(C)C)C(=O)N[C@@H](CC(C)C)C(=O)N[C@@H](CCC(=O)O)C(=O)N[C@@H](C)C(=O)NCC(=O)N1CCC[C@H]1C(=O)N[C@@H](CO)C(=O)N[C@@H](CO)C(=O)NCC(=O)N[C@@H](C)C(=O)N1CCC[C@H]1C(=O)N1CCC[C@H]1C(=O)N1CCC[C@H]1C(=O)N[C@@H](CO)C(N)=O)C(C)C) [Example 43] | 0.0366 | 285 | 605
Y[Aib]EGT[αMePhe(2-F)]ISDYSIALDKK([AEEA-AEEA-γGlu-C20 diacid])HQ[Aib]EFVNYLLATGPSSGAPPPS-NH2 (N-terminus assumed; SMILES CC[C@H](C)[C@H](NC(=O)[C@H](CO)NC(=O)[C@H](Cc1ccc(O)cc1)NC(=O)[C@H](CC(=O)O)NC(=O)[C@H](CO)NC(=O)[C@@H](NC(=O)[C@](C)(Cc1ccccc1F)NC(=O)[C@@H](NC(=O)CNC(=O)[C@H](CCC(=O)O)NC(=O)C(C)(C)NC(=O)[C@@H](N)Cc1ccc(O)cc1)[C@@H](C)O)[C@@H](C)CC)C(=O)N[C@@H](C)C(=O)N[C@@H](CC(C)C)C(=O)N[C@@H](CC(=O)O)C(=O)N[C@@H](CCCCN)C(=O)N[C@@H](CCCCNC(=O)COCCOCCNC(=O)COCCOCCNC(=O)CC[C@H](NC(=O)CCCCCCCCCCCCCCCCCCC(=O)O)C(=O)O)C(=O)N[C@@H](Cc1c[nH]cn1)C(=O)N[C@@H](CCC(N)=O)C(=O)NC(C)(C)C(=O)N[C@@H](CCC(=O)O)C(=O)N[C@@H](Cc1ccccc1)C(=O)N[C@H](C(=O)N[C@@H](CC(N)=O)C(=O)N[C@@H](Cc1ccc(O)cc1)C(=O)N[C@@H](CC(C)C)C(=O)N[C@@H](CC(C)C)C(=O)N[C@@H](C)C(=O)N[C@H](C(=O)NCC(=O)N1CCC[C@H]1C(=O)N[C@@H](CO)C(=O)N[C@@H](CO)C(=O)NCC(=O)N[C@@H](C)C(=O)N1CCC[C@H]1C(=O)N1CCC[C@H]1C(=O)N1CCC[C@H]1C(=O)N[C@@H](CO)C(N)=O)[C@@H](C)O)C(C)C) [Example 34] | 0.034 | 143 | 201
Y[Aib]EGT[αMeF]ISDYSIALDKK([AEEA-AEEA-γGlu-C20 diacid])HQ[Aib]EFVNWLLAGGPSSGAPPPS-NH2 (N-terminus assumed; SMILES CC[C@H](C)[C@H](NC(=O)[C@H](CO)NC(=O)[C@H](Cc1ccc(O)cc1)NC(=O)[C@H](CC(=O)O)NC(=O)[C@H](CO)NC(=O)[C@@H](NC(=O)[C@](C)(Cc1ccccc1)NC(=O)[C@@H](NC(=O)CNC(=O)[C@H](CCC(=O)O)NC(=O)C(C)(C)NC(=O)[C@@H](N)Cc1ccc(O)cc1)[C@@H](C)O)[C@@H](C)CC)C(=O)N[C@@H](C)C(=O)N[C@@H](CC(C)C)C(=O)N[C@@H](CC(=O)O)C(=O)N[C@@H](CCCCN)C(=O)N[C@@H](CCCCNC(=O)COCCOCCNC(=O)COCCOCCNC(=O)CC[C@H](NC(=O)CCCCCCCCCCCCCCCCCCC(=O)O)C(=O)O)C(=O)N[C@@H](Cc1c[nH]cn1)C(=O)N[C@@H](CCC(N)=O)C(=O)NC(C)(C)C(=O)N[C@@H](CCC(=O)O)C(=O)N[C@@H](Cc1ccccc1)C(=O)N[C@H](C(=O)N[C@@H](CC(N)=O)C(=O)N[C@@H](Cc1c[nH]c2ccccc12)C(=O)N[C@@H](CC(C)C)C(=O)N[C@@H](CC(C)C)C(=O)N[C@@H](C)C(=O)NCC(=O)NCC(=O)N1CCC[C@H]1C(=O)N[C@@H](CO)C(=O)N[C@@H](CO)C(=O)NCC(=O)N[C@@H](C)C(=O)N1CCC[C@H]1C(=O)N1CCC[C@H]1C(=O)N1CCC[C@H]1C(=O)N[C@@H](CO)C(N)=O)C(C)C) [Example 25] | 0.0417 | 101 | 15.8
Y[Aib]EGT[αMePhe(2-F)]ISDYSIALDKK([AEEA-AEEA-γGlu-C20 diacid])HQ[Aib]EFVNWLLAGGPSSGAPPPS-NH2 (N-terminus assumed; SMILES CC[C@H](C)[C@H](NC(=O)[C@H](CO)NC(=O)[C@H](Cc1ccc(O)cc1)NC(=O)[C@H](CC(=O)O)NC(=O)[C@H](CO)NC(=O)[C@@H](NC(=O)[C@](C)(Cc1ccccc1F)NC(=O)[C@@H](NC(=O)CNC(=O)[C@H](CCC(=O)O)NC(=O)C(C)(C)NC(=O)[C@@H](N)Cc1ccc(O)cc1)[C@@H](C)O)[C@@H](C)CC)C(=O)N[C@@H](C)C(=O)N[C@@H](CC(C)C)C(=O)N[C@@H](CC(=O)O)C(=O)N[C@@H](CCCCN)C(=O)N[C@@H](CCCCNC(=O)COCCOCCNC(=O)COCCOCCNC(=O)CC[C@H](NC(=O)CCCCCCCCCCCCCCCCCCC(=O)O)C(=O)O)C(=O)N[C@@H](Cc1c[nH]cn1)C(=O)N[C@@H](CCC(N)=O)C(=O)NC(C)(C)C(=O)N[C@@H](CCC(=O)O)C(=O)N[C@@H](Cc1ccccc1)C(=O)N[C@H](C(=O)N[C@@H](CC(N)=O)C(=O)N[C@@H](Cc1c[nH]c2ccccc12)C(=O)N[C@@H](CC(C)C)C(=O)N[C@@H](CC(C)C)C(=O)N[C@@H](C)C(=O)NCC(=O)NCC(=O)N1CCC[C@H]1C(=O)N[C@@H](CO)C(=O)N[C@@H](CO)C(=O)NCC(=O)N[C@@H](C)C(=O)N1CCC[C@H]1C(=O)N1CCC[C@H]1C(=O)N1CCC[C@H]1C(=O)N[C@@H](CO)C(N)=O)C(C)C) [Example 26] | 0.045 | 74.1 | 16.5
Y[Aib]EGT[αMePhe(2-F)]ISDYSIALDKK([AEEA-AEEA-γGlu-C20 diacid])HQ[Aib]DFVEYLLETGPSSGAPPPS-NH2 (N-terminus assumed; SMILES CC[C@H](C)[C@H](NC(=O)[C@H](CO)NC(=O)[C@H](Cc1ccc(O)cc1)NC(=O)[C@H](CC(=O)O)NC(=O)[C@H](CO)NC(=O)[C@@H](NC(=O)[C@](C)(Cc1ccccc1F)NC(=O)[C@@H](NC(=O)CNC(=O)[C@H](CCC(=O)O)NC(=O)C(C)(C)NC(=O)[C@@H](N)Cc1ccc(O)cc1)[C@@H](C)O)[C@@H](C)CC)C(=O)N[C@@H](C)C(=O)N[C@@H](CC(C)C)C(=O)N[C@@H](CC(=O)O)C(=O)N[C@@H](CCCCN)C(=O)N[C@@H](CCCCNC(=O)COCCOCCNC(=O)COCCOCCNC(=O)CC[C@H](NC(=O)CCCCCCCCCCCCCCCCCCC(=O)O)C(=O)O)C(=O)N[C@@H](Cc1c[nH]cn1)C(=O)N[C@@H](CCC(N)=O)C(=O)NC(C)(C)C(=O)N[C@@H](CC(=O)O)C(=O)N[C@@H](Cc1ccccc1)C(=O)N[C@H](C(=O)N[C@@H](CCC(=O)O)C(=O)N[C@@H](Cc1ccc(O)cc1)C(=O)N[C@@H](CC(C)C)C(=O)N[C@@H](CC(C)C)C(=O)N[C@@H](CCC(=O)O)C(=O)N[C@H](C(=O)NCC(=O)N1CCC[C@H]1C(=O)N[C@@H](CO)C(=O)N[C@@H](CO)C(=O)NCC(=O)N[C@@H](C)C(=O)N1CCC[C@H]1C(=O)N1CCC[C@H]1C(=O)N1CCC[C@H]1C(=O)N[C@@H](CO)C(N)=O)[C@@H](C)O)C(C)C) [Example 36] | 0.0683 | 201 | 393
